Reference: patent US20200300873A1

T1: Human hepcidin peptide (hepcidin-25) (human)
T1 sequence (peptide): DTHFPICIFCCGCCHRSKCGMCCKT


Legend:
[1] = molecular target: T1, Human hepcidin peptide (hepcidin-25) (human); experiment: Biacore (SPR); lower end of the estimated range 7-8 pM
[2] = molecular target: T1, Human hepcidin peptide (hepcidin-25) (human); experiment: method not stated
[3] = molecular target: T1, Human hepcidin peptide (hepcidin-25) (human); experiment: Biacore (SPR); upper end of the estimated range 7-8 pM
[4] = molecular target: Hepcidin MAb 583; experiment: competitive ELISA on mAb 583 coated wells; competitor biotinylated hepcidin-25 tracer; standard at 250 ng/mL
[5] = molecular target: Hepcidin MAb 583; experiment: competitive ELISA on mAb 583 coated wells; competitor biotinylated hepcidin-25 tracer; standard at 50 ng/mL
[6] = molecular target: Hepcidin MAb 583; experiment: competitive ELISA on mAb 583 coated wells; competitor biotinylated hepcidin-25 tracer; standard at 1000 ng/mL
[7] = molecular target: Hepcidin MAb 583; experiment: competitive ELISA on mAb 583 coated wells; competitor biotinylated hepcidin-25 tracer; standard at 10 ng/mL
[8] = molecular target: Hepcidin MAb 583; experiment: competitive ELISA on mAb 583 coated wells; competitor biotinylated hepcidin-25 tracer; standard at 25 ng/mL
[9] = molecular target: Hepcidin MAb 583; experiment: competitive ELISA on mAb 583 coated wells; competitor biotinylated hepcidin-25 tracer; standard at 100 ng/mL
[10] = molecular target: Hepcidin MAb 583; experiment: competitive ELISA on mAb 583 coated wells; competitor biotinylated hepcidin-25 tracer; standard at 2.5 ng/mL
[11] = molecular target: Hepcidin MAb 583; experiment: competitive ELISA on mAb 583 coated wells; competitor biotinylated hepcidin-25 tracer; standard at 0 ng/mL

Hepcidin MAb 583, sequence (heavy, as listed by the source, chain 1 of 2): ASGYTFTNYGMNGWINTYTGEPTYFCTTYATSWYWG
Hepcidin MAb 583, sequence (light, as listed by the source, chain 2 of 2): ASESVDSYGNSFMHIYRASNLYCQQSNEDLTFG

| Kd [1] [pM] | affinity (unit not given) [2] | Kd [3] [pM] | Absorbance (450 nm) [4] [OD 450 nm] | Absorbance (450 nm) [5] [OD 450 nm] | Absorbance (450 nm) [6] [OD 450 nm] | Absorbance (450 nm) [7] [OD 450 nm] | Absorbance (450 nm) [8] [OD 450 nm] | Absorbance (450 nm) [9] [OD 450 nm] | Absorbance (450 nm) [10] [OD 450 nm] | Absorbance (450 nm) [11] [OD 450 nm] | Binder |
| --- | --- | --- | --- | --- | --- | --- | --- | --- | --- | --- | --- |
| 7 to 8 | 5.16e-11 | 7 to 8 | – | – | – | – | – | – | – | – | Hepcidin MAb 583 (antibody, from a related filing, V domains shown, part only) VH: QIQLVQSGPELKKPGETVKISCKASGYTFTNYGMNWVKQAPGKGLKWMGWINTYTGEPTYADDFKGRFAFSLETSASTAYLQINNLKNEDTATYFCTTYATSWYWGQG VL: DIVLTQSPASLAVSLGQRATISCRASESVDSYGNSFMHWYQQKPGQPPKLLIYRASNLESGIPARFSGSGSRTDFTLTINPVEADDVATYYCQQSNEDLTFG |
| – | – | – | 0.1 | 0.47 | 0.03 | 1.61 | 0.9 | 0.24 | 2.14 | 2.36 | DTHFPICIFCCGCCHRSKCGMCCKT [Human hepcidin peptide (hepcidin-25)] |
